1 molecule from doi:10.1101/2023.01.09.523197 can be followed below.

The target of the data set is GlnR147-Alexa647;RNAP holoenzyme (Mycobacterium …, UniProt O53830;P9WGZ1;P9WGY9;P9WGY7;P9WGY5;P9WGI1 1-255;1-347;1-1178;1-1316;1-110;1-528, C61S;L148C|). In words: […], SEC in 20 mM Tris-HCl pH 8.0, 75 mM NaCl, 5 mM MgCl2.

B1: amtB+2Cy3 (dsDNA)
DNA 1: GCCCCGGCCGTTCACCCACGCGTAACACGCACCGTGCCTTCGTCACGGCGGCGAAACAACGAGGGGCTTCCACCGAAACCGCGCTGCGTCAATGTCGTGGCGCATAACCGGCCCACCCCT
DNA 2: AGGGGTGGGCCGGTTATGCGCCACGACATTGACGCAGCGCGGTTTCGGTGGAAGCCCCTCGTTGTTTCGCCGCCGTGACGAAGGCACGGTGCGTGTTACGCGTGGGTGAACGGCCGGGGC
With B1, the binding result is “binds”.
